Assay results published in US20200199204A1 (UNITED STATES OF AMERICA AS REPRESENTED BY THE SECRETARY …, published 2020).

Tests used:
Assay in all cases: cell-based or functional assay
HIV-1 Env of CAP256.PI = HIV-1 Env of CAP256.PI (HIV-1)
HIV-1 Env of CAP256.SU = HIV-1 Env of CAP256.SU (HIV-1)
HIV-1 Env of 96ZM651.02 = HIV-1 Env of 96ZM651.02 (HIV-1)
HIV-1 Env of CAP210.E8 = HIV-1 Env of CAP210.E8 (HIV-1)
HIV-1 Env of CAP244.D3 = HIV-1 Env of CAP244.D3 (HIV-1)
HIV-1 Env of CAP45.G3 = HIV-1 Env of CAP45.G3 (HIV-1)
HIV-1 Env of DU156.12 = HIV-1 Env of DU156.12 (HIV-1)
HIV-1 Env of DU172.17 = HIV-1 Env of DU172.17 (HIV-1)
HIV-1 Env of DU422.01 = HIV-1 Env of DU422.01 (HIV-1)
HIV-1 Env of ZM109.4 = HIV-1 Env of ZM109.4 (HIV-1)
HIV-1 Env of ZM135.10a = HIV-1 Env of ZM135.10a (HIV-1)
HIV-1 Env of ZM197.7 = HIV-1 Env of ZM197.7 (HIV-1)
HIV-1 Env of ZM214.15 = HIV-1 Env of ZM214.15 (HIV-1)
HIV-1 Env of ZM233.6 = HIV-1 Env of ZM233.6 (HIV-1)
HIV-1 Env of ZM249.1 = HIV-1 Env of ZM249.1 (HIV-1)
HIV-1 Env of ZM53.12 = HIV-1 Env of ZM53.12 (HIV-1)
HIV-1 Env of 0260.v5.c36 = HIV-1 Env of 0260.v5.c36 (HIV-1)
HIV-1 Env of BG505.w6m = HIV-1 Env of BG505.w6m (HIV-1)
HIV-1 Env of KER2008.12 = HIV-1 Env of KER2008.12 (HIV-1)
HIV-1 Env of KER2018.11 = HIV-1 Env of KER2018.11 (HIV-1)
HIV-1 Env of MB201 = HIV-1 Env of MB201 (HIV-1)
HIV-1 Env of MB539.2B7 = HIV-1 Env of MB539.2B7 (HIV-1)
HIV-1 Env of Q168.a2 = HIV-1 Env of Q168.a2 (HIV-1)
HIV-1 Env of Q23.17 = HIV-1 Env of Q23.17 (HIV-1)
HIV-1 Env of Q259.d2.17 = HIV-1 Env of Q259.d2.17 (HIV-1)
HIV-1 Env of Q461.e2 = HIV-1 Env of Q461.e2 (HIV-1)
HIV-1 Env of Q769.d22 = HIV-1 Env of Q769.d22 (HIV-1)
HIV-1 Env of Q842.d12 = HIV-1 Env of Q842.d12 (HIV-1)
HIV-1 Env of RW020.2 = HIV-1 Env of RW020.2 (HIV-1)
HIV-1 Env of UG037.8 = HIV-1 Env of UG037.8 (HIV-1)
HIV-1 Env of 6535.3 = HIV-1 Env of 6535.3 (HIV-1)
HIV-1 Env of AC10.29 = HIV-1 Env of AC10.29 (HIV-1)
HIV-1 Env of CAAN.A2 = HIV-1 Env of CAAN.A2 (HIV-1)
HIV-1 Env of PVO.04 = HIV-1 Env of PVO.04 (HIV-1)
HIV-1 Env of QH0692.42 = HIV-1 Env of QH0692.42 (HIV-1)
HIV-1 Env of REJO.67 = HIV-1 Env of REJO.67 (HIV-1)
HIV-1 Env of RHPA.7 = HIV-1 Env of RHPA.7 (HIV-1)
HIV-1 Env of SC422.8 = HIV-1 Env of SC422.8 (HIV-1)
HIV-1 Env of THRO.18 = HIV-1 Env of THRO.18 (HIV-1)
HIV-1 Env of TRJO.58 = HIV-1 Env of TRJO.58 (HIV-1)
HIV-1 Env of TRO.11 = HIV-1 Env of TRO.11 (HIV-1)
HIV-1 Env of WITO.33 = HIV-1 Env of WITO.33 (HIV-1)
HIV-1 Env of 191821.E6.1 = HIV-1 Env of 191821.E6.1 (HIV-1)
HIV-1 Env of 3016.V5.c36 = HIV-1 Env of 3016.V5.c36 (HIV-1)
HIV-1 Env of 6405.v4.c34 = HIV-1 Env of 6405.v4.c34 (HIV-1)
HIV-1 Env of C1080.c3 = HIV-1 Env of C1080.c3 (HIV-1)
HIV-1 Env of CM244.ec1 = HIV-1 Env of CM244.ec1 (HIV-1)
HIV-1 Env of CNE3 = HIV-1 Env of CNE3 (HIV-1)
HIV-1 Env of TH976.17 = HIV-1 Env of TH976.17 (HIV-1)

B1: CAP256-VRC26.03 (antibody, V domains shown)
VH: EVQLVESGGGVVQPGKSLRLSCAASRFSFNRYGMHWVRQAPGKGLEWVAAISYDGTDKYHADKVWGRFTISRDNSKNTLYLQMNSLRAEDTALYYCAKDLREDECEEWWSDYYDFGKQLPCRKSRGVAGIFDGWGQGTMVTVSS
VL: QSVLTQPPSVSAAPGQKVTISCSGSSSNIGNNFVSWYQQRPGTAPKILIYENNKRPSETPDRFSGSKSGTSATLAITGLQTADEAEYYCATWSASLSSARVFGTGTRITVLG
With B1 the “neutralization IC50” value (HIV-1 Env of CAP256.PI) was over 50 µg/mL, the “neutralization IC50” value (HIV-1 Env of CAP256.SU) was 0.004 µg/mL and the “neutralization IC50” value (HIV-1 Env of 96ZM651.02) was over 50 µg/mL. For the same binder, the “neutralization IC50” value (HIV-1 Env of CAP210.E8) was 0.011 µg/mL, the “neutralization IC50” value (HIV-1 Env of CAP244.D3) was over 50 µg/mL and the “neutralization IC50” value (HIV-1 Env of CAP45.G3) was 10.7 µg/mL. The “neutralization IC50” value (HIV-1 Env of DU156.12) was 0.117 µg/mL, the “neutralization IC50” value (HIV-1 Env of DU172.17) was over 50 µg/mL and the “neutralization IC50” value (HIV-1 Env of DU422.01) was 0.134 µg/mL. For the same binder, the “neutralization IC50” value (HIV-1 Env of ZM109.4) was over 50 µg/mL, the “neutralization IC50” value (HIV-1 Env of ZM135.10a) was over 50 µg/mL and the “neutralization IC50” value (HIV-1 Env of ZM197.7) was 0.16 µg/mL. The “neutralization IC50” value (HIV-1 Env of ZM214.15) was 1.5 µg/mL, the “neutralization IC50” value (HIV-1 Env of ZM233.6) was 0.032 µg/mL and the “neutralization IC50” value (HIV-1 Env of ZM249.1) was 0.039 µg/mL. The “neutralization IC50” value (HIV-1 Env of ZM53.12) was 0.008 µg/mL, the “neutralization IC50” value (HIV-1 Env of 0260.v5.c36) was over 50 µg/mL and the “neutralization IC50” value (HIV-1 Env of BG505.w6m) was 4.76 µg/mL. The “neutralization IC50” value (HIV-1 Env of KER2008.12) was over 50 µg/mL, the “neutralization IC50” value (HIV-1 Env of KER2018.11) was 0.003 µg/mL and the “neutralization IC50” value (HIV-1 Env of MB201) was over 50 µg/mL. The “neutralization IC50” value (HIV-1 Env of MB539.2B7) was over 50 µg/mL, the “neutralization IC50” value (HIV-1 Env of Q168.a2) was over 50 µg/mL and the “neutralization IC50” value (HIV-1 Env of Q23.17) was over 50 µg/mL. The “neutralization IC50” value (HIV-1 Env of Q259.d2.17) was 0.014 µg/mL, the “neutralization IC50” value (HIV-1 Env of Q461.e2) was over 50 µg/mL and the “neutralization IC50” value (HIV-1 Env of Q769.d22) was over 50 µg/mL. The “neutralization IC50” value (HIV-1 Env of Q842.d12) was over 50 µg/mL, the “neutralization IC50” value (HIV-1 Env of RW020.2) was over 50 µg/mL and the “neutralization IC50” value (HIV-1 Env of UG037.8) was over 50 µg/mL. For the same binder, the “neutralization IC50” value (HIV-1 Env of 6535.3) was over 50 µg/mL, the “neutralization IC50” value (HIV-1 Env of AC10.29) was over 50 µg/mL and the “neutralization IC50” value (HIV-1 Env of CAAN.A2) was over 50 µg/mL. The “neutralization IC50” value (HIV-1 Env of PVO.04) was over 50 µg/mL, the “neutralization IC50” value (HIV-1 Env of QH0692.42) was over 50 µg/mL and the “neutralization IC50” value (HIV-1 Env of REJO.67) was over 50 µg/mL. For the same binder, the “neutralization IC50” value (HIV-1 Env of RHPA.7) was over 50 µg/mL, the “neutralization IC50” value (HIV-1 Env of SC422.8) was over 50 µg/mL and the “neutralization IC50” value (HIV-1 Env of THRO.18) was over 50 µg/mL. For the same binder, the “neutralization IC50” value (HIV-1 Env of TRJO.58) was over 50 µg/mL, the “neutralization IC50” value (HIV-1 Env of TRO.11) was over 50 µg/mL and the “neutralization IC50” value (HIV-1 Env of WITO.33) was over 50 µg/mL. For the same binder, the “neutralization IC50” value (HIV-1 Env of 191821.E6.1) was over 50 µg/mL, the “neutralization IC50” value (HIV-1 Env of 3016.V5.c36) was 0.118 µg/mL and the “neutralization IC50” value (HIV-1 Env of 6405.v4.c34) was over 50 µg/mL. For the same binder, the “neutralization IC50” value (HIV-1 Env of C1080.c3) was 0.119 µg/mL, the “neutralization IC50” value (HIV-1 Env of CM244.ec1) was 0.003 µg/mL and the “neutralization IC50” value (HIV-1 Env of CNE3) was over 50 µg/mL. The “neutralization IC50” value (HIV-1 Env of TH976.17) was over 50 µg/mL.
